Experimental data: publication PMC9352680, “A comprehensive thermodynamic model for RNA binding by the Saccharomyces cerevisiae Pumilio protein PUF4”

T1: PUF4 RNA-binding domain (Saccharomyces cerevisiae, UniProt P25339 537-888)
T1 sequence: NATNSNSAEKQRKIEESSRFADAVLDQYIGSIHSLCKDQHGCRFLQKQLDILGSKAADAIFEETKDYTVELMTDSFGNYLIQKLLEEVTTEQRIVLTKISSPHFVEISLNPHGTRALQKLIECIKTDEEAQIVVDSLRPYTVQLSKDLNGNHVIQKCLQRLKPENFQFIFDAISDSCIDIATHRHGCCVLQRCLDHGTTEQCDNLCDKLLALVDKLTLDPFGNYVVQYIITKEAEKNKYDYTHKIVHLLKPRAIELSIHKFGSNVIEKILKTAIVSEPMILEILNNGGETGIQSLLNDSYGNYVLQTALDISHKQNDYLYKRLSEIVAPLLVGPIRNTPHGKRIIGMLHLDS


Target: T1, PUF4 RNA-binding domain
Experiment: Mg; RNA-MaP; 20 mM Na-HEPES pH 7.4, 30 mM KOAc, 0.75 mM MgCl2, 0.1% Tween-20, 5% glycerol, 0.1 mg/mL BSA, 2 mM DTT; 25 C; 0.0125-409.6 nM protein
Details: tags: N-His6-TEV cleaved; C-SNAP kept, Cy3B-labelled; label: tethered on chip by stalled RNA polymerase

Binder | Kd [nM]
Ib_S2_P4E.1_K4.1_C4.1_H4.1_A4.1_[T5C]_[T7C]_F4.1_T4.1 (ssRNA) RNA: UUUGAUUAAUAUGAUAUCGUUCUUUCUUGUACACUAUUCUUUCUCGAUAUCAUAUUAAUCUUU | 0.279
Ic_S2_P4E.1_K4.1_C4.1_H4.1_A4.1_[A6T]_[T7A]_F4.1_T4.1 (ssRNA) RNA: UUUGAUUAAUAUGAUAUCGUUCUUUCUUGUAUUAUAUUCUUUCUCGAUAUCAUAUUAAUCUUU | 0.912
Ia_S2_P4E.1_K4.1_C4.1_H4.1_A4.1_[A6C]_F4.1_T4.1 (ssRNA) RNA: UUUGAUUAAUAUGAUAUCGUUCUUUCUUGUAUCUUAUUCUUUCUCGAUAUCAUAUUAAUCUUU | 1.21
Ia_S2_P4E.1_K4.1_C4.1_H4.1_A4.1_[T7A]_F4.1_T4.1 (ssRNA) RNA: UUUGAUUAAUAUGAUAUCGUUCUUUCUUGUAUAAUAUUCUUUCUCGAUAUCAUAUUAAUCUUU | 0.749
Ic_S2_P4E.1_K4.1_C4.1_H4.1_A4.1_[A6T]_[T7C]_F4.1_T4.1 (ssRNA) RNA: UUUGAUUAAUAUGAUAUCGUUCUUUCUUGUAUUCUAUUCUUUCUCGAUAUCAUAUUAAUCUUU | 1
Ic_S2_P4E.1_K4.1_C4.1_H4.1_A4.1_[A6T]_[T7G]_F4.1_T4.1 (ssRNA) RNA: UUUGAUUAAUAUGAUAUCGUUCUUUCUUGUAUUGUAUUCUUUCUCGAUAUCAUAUUAAUCUUU | 4.85
Ib_S2_P4E.1_K4.1_C4.1_H4.1_A4.1_[A6C]_[T7G]_F4.1_T4.1 (ssRNA) RNA: UUUGAUUAAUAUGAUAUCGUUCUUUCUUGUAUCGUAUUCUUUCUCGAUAUCAUAUUAAUCUUU | 8.48
Ic_S2_P4E.1_K4.1_C4.1_H4.1_A4.1_[A6C]_[T7A]_F4.1_T4.1 (ssRNA) RNA: UUUGAUUAAUAUGAUAUCGUUCUUUCUUGUAUCAUAUUCUUUCUCGAUAUCAUAUUAAUCUUU | 0.595
Ic_S2_P4E.1_K4.1_C4.1_H4.1_A4.1_[A6C]_[T7C]_F4.1_T4.1 (ssRNA) RNA: UUUGAUUAAUAUGAUAUCGUUCUUUCUUGUAUCCUAUUCUUUCUCGAUAUCAUAUUAAUCUUU | 1.76
Ic_S2_P4E.1_K4.1_C4.1_H4.1_A4.1_[A6G]_[T7C]_F4.1_T4.1 (ssRNA) RNA: UUUGAUUAAUAUGAUAUCGUUCUUUCUUGUAUGCUAUUCUUUCUCGAUAUCAUAUUAAUCUUU | 2.71
Ib_S2_P4E.1_K4.1_C4.1_H4.1_A4.1_[T5A]_[T7A]_F4.1_T4.1 (ssRNA) RNA: UUUGAUUAAUAUGAUAUCGUUCUUUCUUGUAAAAUAUUCUUUCUCGAUAUCAUAUUAAUCUUU | 1.83
Ib_S2_P4E.1_K4.1_C4.1_H4.1_A4.1_[T5A]_[T7C]_F4.1_T4.1 (ssRNA) RNA: UUUGAUUAAUAUGAUAUCGUUCUUUCUUGUAAACUAUUCUUUCUCGAUAUCAUAUUAAUCUUU | 1.21
Ia_S2_P4E.1_K4.1_C4.1_H4.1_A4.1_[T7G]_F4.1_T4.1 (ssRNA) RNA: UUUGAUUAAUAUGAUAUCGUUCUUUCUUGUAUAGUAUUCUUUCUCGAUAUCAUAUUAAUCUUU | 1.05
Ib_S2_P5E.1_K5.1_C5.1_H5.1_A5.1_F5.1_[T8C]_[T9C]_T5.1 (ssRNA) RNA: UUUGAUUAAUAUGAUAUCGUUCUUUCUUGUAUUACCAUUCUUUCUCGAUAUCAUAUUAAUCUUU | 321
Ib_S2_P5E.1_K5.1_C5.1_H5.1_A5.1_F5.1_[T8C]_[A10T]_T5.1 (ssRNA) RNA: UUUGAUUAAUAUGAUAUCGUUCUUUCUUGUAUUACUUUUCUUUCUCGAUAUCAUAUUAAUCUUU | 64.6
Ib_S2_P5E.1_K5.1_C5.1_H5.1_[T3C]_A5.1_F5.1_[T8A]_T5.1 (ssRNA) RNA: UUUGAUUAAUAUGAUAUCGUUCUUUCUUGCAUUAAUAUUCUUUCUCGAUAUCAUAUUAAUCUUU | 1260
Ib_S2_P5E.1_K5.1_C5.1_H5.1_[G2A]_A5.1_F5.1_[A10T]_T5.1 (ssRNA) RNA: UUUGAUUAAUAUGAUAUCGUUCUUUCUUAUAUUAUUUUUCUUUCUCGAUAUCAUAUUAAUCUUU | 137
Ib_S2_P5E.1_K5.1_C5.1_H5.1_A5.1_F5.1_[T9A]_[A10C]_T5.1 (ssRNA) RNA: UUUGAUUAAUAUGAUAUCGUUCUUUCUUGUAUUAUACUUCUUUCUCGAUAUCAUAUUAAUCUUU | 7.25
Ib_S2_P5E.1_K5.1_C5.1_H5.1_[T1A]_A5.1_F5.1_[A10T]_T5.1 (ssRNA) RNA: UUUGAUUAAUAUGAUAUCGUUCUUUCUAGUAUUAUUUUUCUUUCUCGAUAUCAUAUUAAUCUUU | > 2300
Ib_S2_P5E.1_K5.1_C5.1_H5.1_A5.1_F5.1_[T9A]_[A10G]_T5.1 (ssRNA) RNA: UUUGAUUAAUAUGAUAUCGUUCUUUCUUGUAUUAUAGUUCUUUCUCGAUAUCAUAUUAAUCUUU | 3.11
Ib_S2_P5E.1_K5.1_C5.1_H5.1_[T3C]_A5.1_F5.1_[T9A]_T5.1 (ssRNA) RNA: UUUGAUUAAUAUGAUAUCGUUCUUUCUUGCAUUAUAAUUCUUUCUCGAUAUCAUAUUAAUCUUU | 608
Ib_S2_P5E.1_K5.1_C5.1_H5.1_[A4T]_A5.1_F5.1_[T9C]_T5.1 (ssRNA) RNA: UUUGAUUAAUAUGAUAUCGUUCUUUCUUGUUUUAUCAUUCUUUCUCGAUAUCAUAUUAAUCUUU | 1480
Ib_S2_P5E.1_K5.1_C5.1_H5.1_[T1A]_A5.1_F5.1_[T9C]_T5.1 (ssRNA) RNA: UUUGAUUAAUAUGAUAUCGUUCUUUCUAGUAUUAUCAUUCUUUCUCGAUAUCAUAUUAAUCUUU | > 2300

Binder | Kd [nM]
Ib_S2_P5E.1_K5.1_C5.1_H5.1_[G2A]_A5.1_F5.1_[T9C]_T5.1 (ssRNA) RNA: UUUGAUUAAUAUGAUAUCGUUCUUUCUUAUAUUAUCAUUCUUUCUCGAUAUCAUAUUAAUCUUU | 429
Ib_S2_P5E.1_K5.1_C5.1_H5.1_[G2C]_A5.1_F5.1_[T9A]_T5.1 (ssRNA) RNA: UUUGAUUAAUAUGAUAUCGUUCUUUCUUCUAUUAUAAUUCUUUCUCGAUAUCAUAUUAAUCUUU | 1690
Ib_S2_P5E.1_K5.1_C5.1_H5.1_[T1C]_A5.1_F5.1_[A10C]_T5.1 (ssRNA) RNA: UUUGAUUAAUAUGAUAUCGUUCUUUCUCGUAUUAUUCUUCUUUCUCGAUAUCAUAUUAAUCUUU | 2010
Ib_S2_P5E.1_K5.1_C5.1_H5.1_[G2C]_A5.1_F5.1_[A10G]_T5.1 (ssRNA) RNA: UUUGAUUAAUAUGAUAUCGUUCUUUCUUCUAUUAUUGUUCUUUCUCGAUAUCAUAUUAAUCUUU | > 2300
Ib_S2_P5E.1_K5.1_C5.1_H5.1_[A4T]_A5.1_F5.1_[T8A]_T5.1 (ssRNA) RNA: UUUGAUUAAUAUGAUAUCGUUCUUUCUUGUUUUAAUAUUCUUUCUCGAUAUCAUAUUAAUCUUU | 27.9
Ib_S2_P5E.1_K5.1_C5.1_H5.1_[T1A]_A5.1_F5.1_[A10C]_T5.1 (ssRNA) RNA: UUUGAUUAAUAUGAUAUCGUUCUUUCUAGUAUUAUUCUUCUUUCUCGAUAUCAUAUUAAUCUUU | > 2300
Ib_S2_P5E.1_K5.1_C5.1_H5.1_A5.1_F5.1_[T8A]_[A10C]_T5.1 (ssRNA) RNA: UUUGAUUAAUAUGAUAUCGUUCUUUCUUGUAUUAAUCUUCUUUCUCGAUAUCAUAUUAAUCUUU | 181
Ib_S2_P5E.1_K5.1_C5.1_H5.1_[T3C]_A5.1_F5.1_[T8C]_T5.1 (ssRNA) RNA: UUUGAUUAAUAUGAUAUCGUUCUUUCUUGCAUUACUAUUCUUUCUCGAUAUCAUAUUAAUCUUU | 562
Ib_S2_P5E.1_K5.1_C5.1_H5.1_A5.1_F5.1_[T9A]_[A10T]_T5.1 (ssRNA) RNA: UUUGAUUAAUAUGAUAUCGUUCUUUCUUGUAUUAUAUUUCUUUCUCGAUAUCAUAUUAAUCUUU | 0.947
Ib_S2_P5E.1_K5.1_C5.1_H5.1_[G2A]_A5.1_F5.1_[T8G]_T5.1 (ssRNA) RNA: UUUGAUUAAUAUGAUAUCGUUCUUUCUUAUAUUAGUAUUCUUUCUCGAUAUCAUAUUAAUCUUU | 695
Ia_S2_P5E.1_K5.1_C5.1_H5.1_A5.1_F5.1_[T8G]_T5.1 (ssRNA) RNA: UUUGAUUAAUAUGAUAUCGUUCUUUCUUGUAUUAGUAUUCUUUCUCGAUAUCAUAUUAAUCUUU | 26.8
Ib_S2_P5E.1_K5.1_C5.1_H5.1_[A4C]_A5.1_F5.1_[T8C]_T5.1 (ssRNA) RNA: UUUGAUUAAUAUGAUAUCGUUCUUUCUUGUCUUACUAUUCUUUCUCGAUAUCAUAUUAAUCUUU | 39.2
Ib_S2_P5E.1_K5.1_C5.1_H5.1_[G2C]_A5.1_F5.1_[A10T]_T5.1 (ssRNA) RNA: UUUGAUUAAUAUGAUAUCGUUCUUUCUUCUAUUAUUUUUCUUUCUCGAUAUCAUAUUAAUCUUU | 1700
Ib_S2_P5E.1_K5.1_C5.1_H5.1_[G2A]_A5.1_F5.1_[A10C]_T5.1 (ssRNA) RNA: UUUGAUUAAUAUGAUAUCGUUCUUUCUUAUAUUAUUCUUCUUUCUCGAUAUCAUAUUAAUCUUU | 294
Ib_S2_P5E.1_K5.1_C5.1_H5.1_A5.1_F5.1_[T8C]_[A10G]_T5.1 (ssRNA) RNA: UUUGAUUAAUAUGAUAUCGUUCUUUCUUGUAUUACUGUUCUUUCUCGAUAUCAUAUUAAUCUUU | 64.4
Ib_S2_P5E.1_K5.1_C5.1_H5.1_A5.1_F5.1_[T9G]_[A10T]_T5.1 (ssRNA) RNA: UUUGAUUAAUAUGAUAUCGUUCUUUCUUGUAUUAUGUUUCUUUCUCGAUAUCAUAUUAAUCUUU | 3.65
Ic_S2_P5E.1_K5.1_C5.1_H5.1_A5.1_F5.1_[T9C]_[A10T]_T5.1 (ssRNA) RNA: UUUGAUUAAUAUGAUAUCGUUCUUUCUUGUAUUAUCUUUCUUUCUCGAUAUCAUAUUAAUCUUU | 17.6
Ib_S2_P5E.1_K5.1_C5.1_H5.1_[G2A]_A5.1_F5.1_[A10G]_T5.1 (ssRNA) RNA: UUUGAUUAAUAUGAUAUCGUUCUUUCUUAUAUUAUUGUUCUUUCUCGAUAUCAUAUUAAUCUUU | 420
Ib_S2_P5E.1_K5.1_C5.1_H5.1_A5.1_F5.1_[T9C]_[A10C]_T5.1 (ssRNA) RNA: UUUGAUUAAUAUGAUAUCGUUCUUUCUUGUAUUAUCCUUCUUUCUCGAUAUCAUAUUAAUCUUU | 19.4
Ib_S2_P5E.1_K5.1_C5.1_H5.1_[T1C]_A5.1_F5.1_[A10G]_T5.1 (ssRNA) RNA: UUUGAUUAAUAUGAUAUCGUUCUUUCUCGUAUUAUUGUUCUUUCUCGAUAUCAUAUUAAUCUUU | 1750
Ib_S2_P5E.1_K5.1_C5.1_H5.1_[G2T]_A5.1_F5.1_[A10C]_T5.1 (ssRNA) RNA: UUUGAUUAAUAUGAUAUCGUUCUUUCUUUUAUUAUUCUUCUUUCUCGAUAUCAUAUUAAUCUUU | > 2300
Ib_S2_P5E.1_K5.1_C5.1_H5.1_[A4T]_A5.1_F5.1_[T8C]_T5.1 (ssRNA) RNA: UUUGAUUAAUAUGAUAUCGUUCUUUCUUGUUUUACUAUUCUUUCUCGAUAUCAUAUUAAUCUUU | 25
